Measured values: the RNAGym collection of RNA variant scans (doi:10.1073/pnas.2313332121)

B1: TPR t1 (parent)
chain: GACCAAUCUGCCCUCAGAGCUCGAGAACAUCUUCGGAUGCAGAGGAGGCAGGCUUCGGUGGCGCGAUAGCGCCAACGUCCUCAACCUCCAAUGCAUCCCACCACAUGAUGAUGCCUGAAGAGCCUUGGUUUUUUG

Variants of: B1
Test: polymerase ribozyme fitness, log enrichment relative to wild type (log ratio); higher = more active; in vitro selection for triplet polymerase activity
Summary of the method: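 The heterodimeric triplet polymerase ribozyme's subunits were each mutagenized into PCR-built libraries and transcribed. Every library was selected once, in triplicate, by annealing with a biotinylated primer, the partner subunit and triplets, incubating frozen at −7 °C, gel-excising extended constructs, capturing on streptavidin beads and running RT-PCR. Input and output libraries were Illumina-sequenced, with genotypes kept only at ≥10 input reads and ≥1 read per output. Fitness, from inverse-variance-weighted replicate averages, is the base-2 logarithm of genotype enrichment over wild-type enrichment.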

Point of comparison: A16C U38G A46U C56A U59A U87G, “polymerase ribozyme fitness (log ratio)” value -4.62. Against it:
- A6U C73U — higher, 0.309
- A18U A43C A121C — higher, -0.924
- G36A G45C G58C C64G G117U — lower, -6.11
- G42C G93A C97U C115U — lower, -5.15
- A50G G117A — higher, -1.18
- G77A A91U — higher, -1.6
- C56G C82G C115G A121U — higher, -0.801
- U21C U30G C31A G36C C124A — lower, -4.94
- A41C G61U G93C — higher, -1.3
- U55C G57U A66C — higher, 0.353
- U9C U21A C49G C101A — higher, -1.26
- A41C G135U — higher, -1.68
- A5C G42U G48C G69U — higher, -0.971
- C20U A43G C62U U78G U87A C89G — lower, -5.31
- C70G U130G U131G — higher, -4.28
- G48U C49U C72A C73A U131C — higher, -2.61
- C53U A75G A84U — higher, -0.747
- U55C C73A C76G A121U — higher, 0.355
- C72U G110U — higher, -1.17
- A41C G48A G51U C80A C99G C115A U116G — lower, -6.22
- A41G A111C — higher, -0.47
- G39C C40A — higher, -3.01
- A95G U109C — lower, -5.61
- C4A C13A G17A C22U A27G A46C G52C — lower, -6.56
- C40A G48A C86A — higher, -2.18
- G10U G61A — higher, 0.0248
- G42U G60A — higher, -2.16
- G61A U112C U129A — higher, 1.39
- C11A C53G C64U C97U C101G G135C — higher, -3.13
- G65C C101U — within 0.2 log units, -4.71
- C49U C101A — higher, -1.69
- G57U A91G C114A U131A — higher, -3.11
- U9A A24G G42A G52C C72G — higher, -3.17
- G71U C97U U112A — higher, 1.1
- G58C G93A C114U — higher, -3.02
- C8U U21A U30C C56U — higher, -3.2
- U54A G127C — higher, -0.488
- A18C U32C A46U A90U C114U — higher, -3.04
- G93C G127A — higher, -1.89
- A66G U96C A118U — higher, -1.1
- G58A U125G — higher, -0.683
- U7G A103C G120A — higher, -2.83
- U54A G113A C123U — higher, -2.23
- C15A G47U C115A A121C U133C — higher, -3.65
- C72A C98A U131A — lower, -5.63
- A18C G45A C53U G113A — higher, -3.09
- C20U G60A — higher, -1.03
- G39A C56U — higher, -0.755
- A43U G45U C115G — higher, -3.44
- G17A U78C U129C — higher, -3.37
- C12G C31U G61A — lower, -5.13
- G39U C49A C80U — higher, -3.62
- A46U C70G — within 0.2 log units, -4.75
- C73U U96G G117A — higher, -2.78
- A6C C11G C40U C123U — higher, 0.00495
- C13A C123G — higher, -0.0402
- G36A G51U G120A — higher, -3.42
- C72U C114U — higher, -1.89
- C4U C70A C85G C86U — higher, -3.72
- C8U G71A — higher, -0.229
- C73G U116C U131A — higher, -1.53
- U38C C56U A84G — higher, -1.53
- A5C C89A A111C — higher, -3.6
- G17U C20A C49U — lower, -5.73
- C15G C72U — higher, -3.01
- U32A C56G G77U C99A C123U U125G — lower, -5.41
- G39C C88U G135U — higher, -2.39
- A26G G113U — higher, -4.2
- C72U C104U — higher, -0.541
- A6U C53G C99U — higher, -4.03
- G48A C49G C56U — higher, -0.3
- C12U C13U C79G — higher, -1.13
- U9G U87C — higher, -0.367
- A2C C12U G42U G71U A84U C94A U129A — lower, -4.83
- A74U C114G C124A U125C — higher, -1.43
- C40U U87A — higher, -0.311
- C53G C89U C115U — higher, -2.67
- U67C — higher, -2.8
- C4U C15A C82G — higher, -3.56
- A66U U78C U87A A111U — within 0.2 log units, -4.73
- A5G C11A C70G U81C — within 0.2 log units, -4.45
- C34U G117U — lower, -5.02
- C62A U78C A121C — higher, 0.55
- C101A U109A A111G G120U C124U — lower, -6.02
- A6U C53G C124U U129A — higher, -0.73
- C20U A91U — higher, -2.81
- G52U C56U — higher, -2.1
- G36A C72G U92A — lower, -5.43
- G110C U131C — higher, -3.75
- A84U U109G — higher, -4.27
- U7C G19U U54C C72G — higher, -3.1
- C72U G120C U131G — higher, 0.516
- C94A C98A — lower, -6.59
- G47U G77U — higher, -2.07
- C11G G42A C72A C88U — higher, -1.46
- C56U G93A C97U U129A — higher, -2.25
- G23U C70A A91G G107U C114U — lower, -5.99
- G45A C49A C94U G110A C124G — higher, -1.89
- G44C G122A — higher, -1.4
- U7A C20U C73U G120A U129C U131G — higher, -0.869
- U54A C124A G128U — higher, -0.136
- C3U G120C — higher, 0.705
- C12G C62U A68C U116C A121C U129A — lower, -6.48
- U7G C40U C72A C86U G93U C102A U106A — lower, -5.6
- C13A G23A A66G G69A U78C C85U A90U U96G C123U — lower, -6.29
- C53A G69U G120C — higher, 1.96
- U59A C124A — higher, 1.62
- G63A C102U U133G — higher, -2.77
- C12A C34A G45A G71C — lower, -6.58
- G17U C72A — higher, -1.86
- C98G — lower, -5.78
- U38A G44U G52U C72G — within 0.2 log units, -4.73
- C3U C34G C123U — within 0.2 log units, -4.64
- C11A U126A U129C — higher, -2.33
- C12A C99G G110U — lower, -6.29
- C70U U131A — higher, -0.232
- C12U C62U C70G G93A — lower, -5.44
- G44A A50G C73U — higher, -0.0837
- C72U G120C — higher, 0.644
- C40U G52U C88A — higher, -1.07
- G35A C101U C115A — higher, -3.56
- G117C U126G — higher, -3.22
- U7A C72U G77C G93C G113A G120A — higher, -2.99
- U9A C20A — higher, -2.35
- C73G C101U U133A — higher, -1.03
- G51U G117U — lower, -5.83
- G61U C99A C115A C124A — within 0.2 log units, -4.46
- G10A C15A C73U — higher, -2.06
- A43U C56A — higher, -1.69
- A43G A50C C85U C89A — higher, -3.67
- C8G G48U — higher, -0.882
- C76A G93C C94A U112G — within 0.2 log units, -4.68
- C72A C94U — higher, -0.00506
- G107A C114A — higher, -4.24
- C8U U14A G61A — higher, -0.345
- U21A A37U C72U — higher, -0.453
- C64U C123A — higher, -0.0204
- G19C C22U A46C G61U — lower, -5.14
- U9G G57U U96A U112A — higher, 0.146
- C85A C89A U106A C114A — lower, -5.22
- G117U U131G — within 0.2 log units, -4.64
- G17U G135U — higher, -3.6
- G61A C72A — higher, -0.462
- C11G G69U — higher, 0.709
- C11G G57A C73A C123G — higher, 0.666
- C40A C64U — higher, -2.19
- A27U G135C — higher, -3.11
- G52A U55C C56A G57C — higher, 0.195
- C12A U78C — higher, -0.581
- U54G G71U C79A — lower, -5.67
- A2U G10U A18G U33G G60A C124A — lower, -6.77
- C20U C94G C101U U106A — lower, -5.04
- C4U G63U — higher, -1.66
- C70A U109C — higher, -4.18
- A5C A26G C88U U116C U129A — lower, -6.24
- C12G A37U A105C U112C — higher, -0.116
- C8A C64G A111G A121C U129A — lower, -6.98
- A46U C62G C88A C124A U133G — higher, -4.11
- U9C U133G — higher, 0.11
- C72U A74U U106A G127A — higher, -1.68
- A6C G48U C53U U59G C70U A90C — higher, -4.07
- G36A C72A C97U — higher, 0.549
- U55C G61U A90G U112C A119U — higher, 0.196
- G19U G51A G60A G77C G113U — lower, -6.6
- U33G G47C G61C C80A U112A U116C A119U — lower, -6.76
- A18U A43U C101G — higher, -3.57
